Data from US20230272029A1, “CO-AGONISTS AT GLP-1 AND GIP RECEPTORS SUITABLE FOR ORAL DELIVERY” (Novo Nordisk A/S, priority 2020, published 2023).
Starred links: 1 amine or outer side, 2 acyl side, 3 side chain; linkers in the order of their positions; H or OH if unused. Non-standard residues stand in square brackets, D forms with d. Groups on a side chain read outwards from the residue. No end group written: not given here. *: point of attachment. C20 diacid = O=C(O)CCCCCCCCCCCCCCCCCCC(=O)*; C18 diacid = O=C(O)CCCCCCCCCCCCCCCCC(=O)*; γGlu = O=C(O)[C@H](CCC(=O)[*:2])N[*:1]; εLys = N[C@@H](CCCCN[*:1])C(=O)[*:2]; Aib = CC(C)(N)C(=O)O

B1: Compound No. 23 (peptide)
peptide: Y[Aib]EGTFTSDYSILLEK([εLys-εLys-γGlu-C18 diacid])QAAREFIQWLLAGGPSSGAPPPS-OH
modifications: N-terminus assumed
SMILES: CC[C@H](C)[C@H](NC(=O)[C@H](Cc1ccccc1)NC(=O)[C@H](CCC(=O)O)NC(=O)[C@H](CCCNC(=N)N)NC(=O)[C@H](C)NC(=O)[C@H](C)NC(=O)[C@H](CCC(N)=O)NC(=O)[C@H](CCCCNC(=O)[C@@H](N)CCCCNC(=O)[C@@H](N)CCCCNC(=O)CC[C@H](NC(=O)CCCCCCCCCCCCCCCCC(=O)O)C(=O)O)NC(=O)[C@H](CCC(=O)O)NC(=O)[C@H](CC(C)C)NC(=O)[C@H](CC(C)C)NC(=O)[C@@H](NC(=O)[C@H](CO)NC(=O)[C@H](Cc1ccc(O)cc1)NC(=O)[C@H](CC(=O)O)NC(=O)[C@H](CO)NC(=O)[C@@H](NC(=O)[C@H](Cc1ccccc1)NC(=O)[C@@H](NC(=O)CNC(=O)[C@H](CCC(=O)O)NC(=O)C(C)(C)NC(=O)[C@@H](N)Cc1ccc(O)cc1)[C@@H](C)O)[C@@H](C)O)[C@@H](C)CC)C(=O)N[C@@H](CCC(N)=O)C(=O)N[C@@H](Cc1c[nH]c2ccccc12)C(=O)N[C@@H](CC(C)C)C(=O)N[C@@H](CC(C)C)C(=O)N[C@@H](C)C(=O)NCC(=O)NCC(=O)N1CCC[C@H]1C(=O)N[C@@H](CO)C(=O)N[C@@H](CO)C(=O)NCC(=O)N[C@@H](C)C(=O)N1CCC[C@H]1C(=O)N1CCC[C@H]1C(=O)N1CCC[C@H]1C(=O)N[C@@H](CO)C(=O)O
B2: Compound No. 2 (peptide)
peptide: Y[Aib]EGTFTSDYSYYLEK([εLys-εLys-γGlu-C20 diacid])QAAQEFVNWLLAGGPSSGAPPPS-NH2
modifications: N-terminus assumed
SMILES: CC(C)C[C@H](NC(=O)[C@H](CC(C)C)NC(=O)[C@H](Cc1c[nH]c2ccccc12)NC(=O)[C@H](CC(N)=O)NC(=O)[C@@H](NC(=O)[C@H](Cc1ccccc1)NC(=O)[C@H](CCC(=O)O)NC(=O)[C@H](CCC(N)=O)NC(=O)[C@H](C)NC(=O)[C@H](C)NC(=O)[C@H](CCC(N)=O)NC(=O)[C@H](CCCCNC(=O)[C@@H](N)CCCCNC(=O)[C@@H](N)CCCCNC(=O)CC[C@H](NC(=O)CCCCCCCCCCCCCCCCCCC(=O)O)C(=O)O)NC(=O)[C@H](CCC(=O)O)NC(=O)[C@H](CC(C)C)NC(=O)[C@H](Cc1ccc(O)cc1)NC(=O)[C@H](Cc1ccc(O)cc1)NC(=O)[C@H](CO)NC(=O)[C@H](Cc1ccc(O)cc1)NC(=O)[C@H](CC(=O)O)NC(=O)[C@H](CO)NC(=O)[C@@H](NC(=O)[C@H](Cc1ccccc1)NC(=O)[C@@H](NC(=O)CNC(=O)[C@H](CCC(=O)O)NC(=O)C(C)(C)NC(=O)[C@@H](N)Cc1ccc(O)cc1)[C@@H](C)O)[C@@H](C)O)C(C)C)C(=O)N[C@@H](C)C(=O)NCC(=O)NCC(=O)N1CCC[C@H]1C(=O)N[C@@H](CO)C(=O)N[C@@H](CO)C(=O)NCC(=O)N[C@@H](C)C(=O)N1CCC[C@H]1C(=O)N1CCC[C@H]1C(=O)N1CCC[C@H]1C(=O)N[C@@H](CO)C(N)=O
B3: Compound No. 22 (peptide)
peptide: Y[Aib]EGTFTSDYSILLEK([εLys-εLys-γGlu-C18 diacid])QAAREFVNWLLAGGPSSGAPPPS-OH
modifications: N-terminus assumed
SMILES: CC[C@H](C)[C@H](NC(=O)[C@H](CO)NC(=O)[C@H](Cc1ccc(O)cc1)NC(=O)[C@H](CC(=O)O)NC(=O)[C@H](CO)NC(=O)[C@@H](NC(=O)[C@H](Cc1ccccc1)NC(=O)[C@@H](NC(=O)CNC(=O)[C@H](CCC(=O)O)NC(=O)C(C)(C)NC(=O)[C@@H](N)Cc1ccc(O)cc1)[C@@H](C)O)[C@@H](C)O)C(=O)N[C@@H](CC(C)C)C(=O)N[C@@H](CC(C)C)C(=O)N[C@@H](CCC(=O)O)C(=O)N[C@@H](CCCCNC(=O)[C@@H](N)CCCCNC(=O)[C@@H](N)CCCCNC(=O)CC[C@H](NC(=O)CCCCCCCCCCCCCCCCC(=O)O)C(=O)O)C(=O)N[C@@H](CCC(N)=O)C(=O)N[C@@H](C)C(=O)N[C@@H](C)C(=O)N[C@@H](CCCNC(=N)N)C(=O)N[C@@H](CCC(=O)O)C(=O)N[C@@H](Cc1ccccc1)C(=O)N[C@H](C(=O)N[C@@H](CC(N)=O)C(=O)N[C@@H](Cc1c[nH]c2ccccc12)C(=O)N[C@@H](CC(C)C)C(=O)N[C@@H](CC(C)C)C(=O)N[C@@H](C)C(=O)NCC(=O)NCC(=O)N1CCC[C@H]1C(=O)N[C@@H](CO)C(=O)N[C@@H](CO)C(=O)NCC(=O)N[C@@H](C)C(=O)N1CCC[C@H]1C(=O)N1CCC[C@H]1C(=O)N1CCC[C@H]1C(=O)N[C@@H](CO)C(=O)O)C(C)C
B4: Compound No. 9 (peptide)
peptide: Y[Aib]EGTFTSDYSIYLEK([εLys-εLys-γGlu-C18 diacid])QAAREFIEWLLAGGPSSGAPPPS-OH
modifications: N-terminus assumed
SMILES: CC[C@H](C)[C@H](NC(=O)[C@H](Cc1ccccc1)NC(=O)[C@H](CCC(=O)O)NC(=O)[C@H](CCCNC(=N)N)NC(=O)[C@H](C)NC(=O)[C@H](C)NC(=O)[C@H](CCC(N)=O)NC(=O)[C@H](CCCCNC(=O)[C@@H](N)CCCCNC(=O)[C@@H](N)CCCCNC(=O)CC[C@H](NC(=O)CCCCCCCCCCCCCCCCC(=O)O)C(=O)O)NC(=O)[C@H](CCC(=O)O)NC(=O)[C@H](CC(C)C)NC(=O)[C@H](Cc1ccc(O)cc1)NC(=O)[C@@H](NC(=O)[C@H](CO)NC(=O)[C@H](Cc1ccc(O)cc1)NC(=O)[C@H](CC(=O)O)NC(=O)[C@H](CO)NC(=O)[C@@H](NC(=O)[C@H](Cc1ccccc1)NC(=O)[C@@H](NC(=O)CNC(=O)[C@H](CCC(=O)O)NC(=O)C(C)(C)NC(=O)[C@@H](N)Cc1ccc(O)cc1)[C@@H](C)O)[C@@H](C)O)[C@@H](C)CC)C(=O)N[C@@H](CCC(=O)O)C(=O)N[C@@H](Cc1c[nH]c2ccccc12)C(=O)N[C@@H](CC(C)C)C(=O)N[C@@H](CC(C)C)C(=O)N[C@@H](C)C(=O)NCC(=O)NCC(=O)N1CCC[C@H]1C(=O)N[C@@H](CO)C(=O)N[C@@H](CO)C(=O)NCC(=O)N[C@@H](C)C(=O)N1CCC[C@H]1C(=O)N1CCC[C@H]1C(=O)N1CCC[C@H]1C(=O)N[C@@H](CO)C(=O)O

What was measured:
human GLP-1 receptor = human GLP-1 receptor (human, UniProt P43220 24-463); experiment: cell-based or functional assay
human GIP receptor = target: T1, human GIP receptor (human, UniProt P48546 22-466); experiment: cell-based or functional assay
T1 sequence (looked up): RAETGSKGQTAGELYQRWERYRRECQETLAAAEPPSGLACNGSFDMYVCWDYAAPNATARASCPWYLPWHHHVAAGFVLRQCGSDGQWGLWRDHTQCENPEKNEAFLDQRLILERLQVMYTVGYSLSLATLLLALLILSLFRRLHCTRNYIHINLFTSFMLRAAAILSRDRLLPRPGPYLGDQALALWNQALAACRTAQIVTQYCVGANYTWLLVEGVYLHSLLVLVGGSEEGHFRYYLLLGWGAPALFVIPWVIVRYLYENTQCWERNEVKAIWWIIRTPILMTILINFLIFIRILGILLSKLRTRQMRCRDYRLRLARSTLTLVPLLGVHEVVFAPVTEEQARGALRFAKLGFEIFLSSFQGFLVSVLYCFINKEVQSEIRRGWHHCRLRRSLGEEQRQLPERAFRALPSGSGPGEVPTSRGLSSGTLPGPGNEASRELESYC

Binder | hGLP-1R, CRE Luc 0% HSA EC50 (pM) (human GLP-1 receptor) | hGLP-1R, CRE Luc 1% HSA EC50 (pM) (human GLP-1 receptor) | hGIPR, CRE Luc 0% HSA EC50 (pM) (human GIP receptor) | hGIPR, CRE Luc 1% HSA EC50 (pM) (human GIP receptor)
B1 | 4.1 | 118 | 6.7 | 134
B2 | 6 | 900 | 3.8 | 275
B3 | 2.8 | 170 | 6.2 | 169
B4 | 3.8 | 279 |  | 
